According to patent publication US20260218128A1 (CARSGEN LIFE SCIENCES, published 2026):

T1: mouse MOG overexpressed on cells (293T-mMOG, K562-mMOG) (mouse, UniProt Q61885 29-246)
T1 construct: whole, on cells
T1 sequence (looked up): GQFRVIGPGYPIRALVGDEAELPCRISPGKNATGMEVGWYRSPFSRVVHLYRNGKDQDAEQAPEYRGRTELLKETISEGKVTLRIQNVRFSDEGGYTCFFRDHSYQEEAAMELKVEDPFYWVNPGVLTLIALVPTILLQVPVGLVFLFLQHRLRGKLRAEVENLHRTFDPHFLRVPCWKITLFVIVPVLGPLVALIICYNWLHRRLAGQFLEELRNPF

T2: recombinant hMOG_his (human, UniProt Q16653 30-154, limits assumed)
T2 construct: also called human MOG antigen; not shown: His tag
T2 sequence: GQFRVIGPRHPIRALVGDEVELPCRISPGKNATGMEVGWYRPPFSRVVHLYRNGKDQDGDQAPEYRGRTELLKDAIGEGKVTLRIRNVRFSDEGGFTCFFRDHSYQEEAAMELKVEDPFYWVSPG

T3: human MOG overexpressed on cells (293T-hMOG, K562-hMOG) (human, UniProt Q16653 30-247)
T3 construct: Cells overexpressing human MOG built by conventional techniques; also called K562-huMOG
T3 chain: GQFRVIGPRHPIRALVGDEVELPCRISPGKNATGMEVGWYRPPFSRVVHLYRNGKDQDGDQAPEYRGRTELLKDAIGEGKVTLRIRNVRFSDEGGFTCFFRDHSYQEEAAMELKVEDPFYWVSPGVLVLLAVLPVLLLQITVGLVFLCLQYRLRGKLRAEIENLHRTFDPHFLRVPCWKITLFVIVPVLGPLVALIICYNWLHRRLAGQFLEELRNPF


What was measured:
[1] = target: T1, mouse MOG overexpressed on cells …; assay: flow cytometry, Fab on 293T-mMOG cells, Anti-Fc-FITC secondary, MFI
recombinant hMOG_his = target: T2, recombinant hMOG_his; assay: SPR, Biacore T200; MOG_His amine-coupled on CM5, Fab as analyte, 1:1 Langmuir fit
[2] = target: T3, human MOG overexpressed on cells …; assay: flow cytometry, Fab 5 µg/mL on 293T-hMOG cells, Anti-Fc-FITC secondary, MFI; controls 293T cells and NA (no antibody)
[3] = target: T1, mouse MOG overexpressed on cells …; assay: flow cytometry, Fab 5 µg/mL on 293T-mMOG cells, Anti-Fc-FITC secondary, MFI; controls 293T cells and NA (no antibody)

Row | Binder | binding result [1] | Kd (recombinant hMOG_his) [nM] | koff (recombinant hMOG_his) [s⁻¹] | kon (recombinant hMOG_his) [M⁻¹ s⁻¹] | binding result [2] | binding result [3]
1 | A3 (Fab form) (Fab, V domains shown, Fully human anti-MOG clone tested in Fab form; also called antibody A3) VH: QVQLVQSGAEVKKPGSSVKVSCKASGGTFSSYAISWVRQAPGQGLEWMGGIIPIFGTANYAQKFQGRVTITADKSTSTAYMELSSLRSEDTAVYYCARGWYFFDAGFDYWGQGTTVTVSS VL: DIQMTQSPSTLSASVGDRVTITCRASQSISSWLAWYQQKPGKAPKLLIYDASSLESGVPSRFSGSGSGTEFTLTISSLQPDDFATYYCQQYDSPLLTFGQGTKVEIKR | no binding | 5.92 | 0.00139 | 234000 | binds | –
2 | A5 (Fab form) (Fab, V domains shown, Fully human anti-MOG clone tested in Fab form; also called antibody A5) VH: QVQLVQSGAEVKKPGSSVKVSCKASGGTFSSYAISWVRQAPGQGLEWMGGIIPIFGTANYAQKFQGRVTITADKSTSTAYMELSSLRSEDTAVYYCARAPYSPTYYPFDYWGQGTTVTVSS VL: DIQMTQSPSTLSASVGDRVTITCRASQSISSWLAWYQQKPGKAPKLLIYDASSLESGVPSRFSGSGSGTEFTLTISSLQPDDFATYYCQQYSMDHLTFGQGTKVEIKR | – | 27.6 | 0.00278 | 101000 | binds | binds
3 | A7 (Fab form) (Fab, V domains shown, Fully human anti-MOG clone tested in Fab form; also called antibody A7) VH: not shown VL: DIQMTQSPSTLSASVGDRVTITCRASQSISSWLAWYQQKPGKAPKLLIYDASSLESGVPSRFSGSGSGTEFTLTISSLQPDDFATYYCQQSDTYPRTFGQGTKVEIKR | – | 25.6 | 0.00166 | 65000 | binds | binds
4 | A9 (Fab form) (Fab, V domains shown, also called antibody A9) VH: not shown VL: DIQMTQSPSTLSASVGDRVTITCRASQSISSWLAWYQQKPGKAPKLLIYDASSLESGVPSRFSGSGSGTEFTLTISSLQPDDFATYYCQQYDQYWTFGQGTKVEIKR | no binding | 2.28 | 0.000287 | 125000 | binds | –

Other lines, results leading:

Row | binding result [1] | Kd (recombinant hMOG_his) [nM] | koff (recombinant hMOG_his) [s⁻¹] | kon (recombinant hMOG_his) [M⁻¹ s⁻¹] | binding result [2] | binding result [3] | Binder
5 | – | 24 | 0.000516 | 21500 | binds | binds | A4 (Fab form) (Fab, V domains shown, Fully human anti-MOG clone tested in Fab form; also called antibody A4) VH: QVQLVQSGAEVKKPGSSVKVSCKASGGTFSSYAISWVRQAPGQGLEWMGGIIPIFGTANYAQKFQGRVTITADKSTSTAYMELSSLRSEDTAVYYCAREWYWPDNPFDYWGQGTTVTVSS VL: not shown
6 | no binding | 6.83 | 0.00103 | 151000 | binds | – | A12 (Fab form) (Fab, V domains shown, Fully human anti-MOG clone tested in Fab form; also called antibody A12) VH: not shown VL: DIQMTQSPSTLSASVGDRVTITCRASQSISSWLAWYQQKPGKAPKLLIYDASSLESGVPSRFSGSGSGTEFTLTISSLQPDDFATYYCQQYGIPWTFGQGTKVEIKR
7 | no binding | 17.6 | 0.00432 | 246000 | binds | – | A11 (Fab form) (Fab, V domains shown, Fully human anti-MOG clone tested in Fab form; also called antibody A11; All [sic]) VH: not shown VL: DIQMTQSPSTLSASVGDRVTITCRASQSISSWLAWYQQKPGKAPKLLIYDASSLESGVPSRFSGSGSGTEFTLTISSLQPDDFATYYCQQVYIYSTFGQGTKVEIKR
8 | no binding | 7.26 | 0.00193 | 266000 | binds | – | A1 (Fab form) (Fab, V domains shown, Fully human anti-MOG clone tested in Fab form; also called antibody A1) VH: QVQLVQSGAEVKKPGSSVKVSCKASGGTFSSYAISWVRQAPGQGLEWMGGIIPIFGTANYAQKFQGRVTITADKSTSTAYMELSSLRSEDTAVYYCARGYFSEEAMDYWGQGTTVTVSS VL: not shown
